From patent US8343503B2, “Contiguous overlapping peptides for treatment of birch pollen allergy” (Anergis S.A., priority 2009, dated 2013)
Read-outs that look alike come from different tables or passages of the source. No end group written: not given here.

Tests used:
[1] = test system: birch pollen allergic volunteers; conditions: human, in vivo
Description: (§1) The allergenic response of the peptides was evaluated in vivo by SPT with each of the 5 peptides (AllerT1, AllerT2, AllerT3, AllerT4 and AllerT5) and with the 2 sets (AllerT1-3 and AllerT4-5) on all patients. For each peptide, a 20 μl drop was applied on the forearm at 3 different concentrations (10, 1 and 0.1 μM). […] The weal diameter was evaluated by taking the maximal diameter. SPT was considered positive when the weal diameter was 4 mm or more with an erythema (Hoffmann, A. et al., J Allergy Clin Immunol, 99(2):227-32 (1997). Reactions resulting in a weal diameter below 4 mm, while exceeding 2 mm, were also recorded and classified as “dubious”.

Bet v 1 specific IgE = assay: Competition ELISA: IgE binding of COPs compared to r Bet v 1; set-up: species or system human; conditions: for competition with Bet v 1 for IgE binding / residual IgE binding: sera from three allergic patients (data not shown); for competition for IgE binding to coated r Bet v 1: serial dilutions starting at 10 μM pre-incubated with serum of birch pollen allergic subjects
Description: Recombinant Bet v 1 at 0.5 μg/ml (r Bet v 1 obtained from Biomay, Austria) was coated overnight on 96-well Nunc Maxisorp® immunoplates (Life Technologies, Basel, Switzerland). After blocking with 1% BSA, ten-fold dilutions of patient serum were added. […] The sera of three allergic patients were selected for high IgE level and clear signal over background and used to test for competition with the peptides. Serial dilutions of each COP, namely AllerT1, AllerT2, AllerT3, AllerT4, AllerT5, AllerT6, AllerT7 and AllerT8, or mixtures of AllerT1-3, AllerT4-5 and AllerT6-8, starting at 10 μM, were pre-incubated with the three selected sera overnight at 4° C. Sera were then incubated on r Bet v 1 coated 96-well plates and residual IgE binding was determined as described above. r Bet v 1 dilutions were used as control for inhibition, whereas BSA was used as control for possible non-specific inhibition.

[2] = test system: birch pollen allergic volunteers; assay: Skin prick tests (SPT) of allergic patients; conditions: for Positive skin reactions (subjects) / Reactivity lower than defined threshold (dubious) (subjects): 20 volunteers
Description: as §1

[3] = test system: basophils (IgE-positive cells) in blood from a birch pollen allergic donor; assay: Basophil degranulation test (Basotest); format: cell-based, human; conditions: blood of birch pollen allergic donor; r Bet v 1 0.0025-25 nano-molar, COPs starting 10 fold higher; FIG. 4
Description: Basotest® (ORPEGEN Pharma Heidelberg, Germany) was used for the quantitative determination of in vitro basophile degranulation. Heparinized blood (100 μl) from a birch pollen allergic donor was first incubated with a stimulation buffer for 20 min at 37° C., and then with or without chemotactic peptide formylmethionylleucylphenylalanine (fMLP) as positive and negative controls respectively. Aliquots of blood were incubated in parallel with 100 μl allergen solution diluted in a saline solution for 20 min at 37° C. A dose response curve was performed with 25, 2.5, 0.25, 0.025 and 0.0025 nano-molar r Bet v 1 as well as starting 10 fold higher with AllerT mixes (AllerT1-T3, AllerT4-5 and AllerT6-8). The activation process was stopped by incubating the blood samples at 4° C. for 10 min. The samples were then incubated for 20 min at +4° C. with 20 μl of phycoerythrin (PE)-conjugated anti-IgE and fluorescein isothyocyanate (FITC)-conjugated anti-gp53 (CD63). Erythrocytes were subsequently removed by the addition of 2 ml of lysing solution (Becton-Dickinson). Cells were washed twice with PBS solution and resuspended in 200 μl of PBS solution and analyzed within 1 h by cytofluorimetry (FASCalibur, BectonDickinson). The basophile population was gated on the PE anti-IgE positive cells and the expression of gp53 (CD63) was analyzed on this population. […]

[4] = dilution 1:1, weal 4 mm or more with erythema

| Molecule | Positive skin reactions (subjects) [1] | competition with Bet v 1 for IgE binding / residual IgE binding (Bet v 1 specific IgE) | competition for IgE binding to coated r Bet v 1 (Bet v 1 specific IgE; FIG. 1) | IC50 (Bet v 1 specific IgE; depending on the serum of the donor, FIG. 1, read-out: concentration competing with IgE present in the sera (50% inhibition)) | Positive skin reactions (subjects) [2, 4] | Reactivity lower than defined threshold (dubious) (subjects) ([2]; dilution 1:1, weal below 4 mm) | Positive skin reactions (subjects) ([2]; dilution 1:10) | Reactivity lower than defined threshold (dubious) (subjects) ([2]; dilution 1:10) | Positive skin reactions (subjects) ([2]; dilution 1:100) | Reactivity lower than defined threshold (dubious) (subjects) ([2]; dilution 1:100) | SPT result ([2]; birch pollen extract 100,000 SQ, recombinant Bet v 1 1 μM) | basophil degranulation (IgE-positive cells expressing CD63) [3] |
| --- | --- | --- | --- | --- | --- | --- | --- | --- | --- | --- | --- | --- |
| CC[C@H](C)[C@H](NC(=O)[C@H](C)NC(=O)[C@H](CCC(N)=O)NC(=O)[C@@H]1CCCN1C(=O)[C@H](C)NC(=O)[C@@H](NC(=O)[C@H](CCCCN)NC(=O)[C@@H]1CCCN1C(=O)[C@H](Cc1ccccc1)NC(=O)[C@H](CC(C)C)NC(=O)[C@H](CC(N)=O)NC(=O)[C@H](CC(=O)O)NC(=O)CNC(=O)[C@H](CC(=O)O)NC(=O)[C@H](CC(C)C)NC(=O)[C@@H](NC(=O)[C@H](Cc1ccccc1)NC(=O)[C@H](C)NC(=O)[C@H](CCCCN)NC(=O)[C@H](Cc1ccccc1)NC(=O)[C@H](CC(C)C)NC(=O)[C@H](CCCNC(=N)N)NC(=O)[C@H](C)NC(=O)[C@H](C)NC(=O)[C@@H]1CCCN1C(=O)[C@@H](NC(=O)[C@@H](NC(=O)[C@H](CO)NC(=O)[C@@H](NC(=O)[C@@H](NC(=O)[C@H](CCC(=O)O)NC(=O)[C@@H](NC(=O)[C@H](CCC(=O)O)NC(=O)[C@H](Cc1ccc(O)cc1)NC(=O)[C@H](CC(N)=O)NC(=O)[C@H](Cc1ccccc1)NC(=O)[C@@H](NC(=O)CN)C(C)C)[C@@H](C)O)[C@@H](C)O)[C@@H](C)O)C(C)C)[C@@H](C)CC)[C@@H](C)CC)C(C)C)C(=O)N[C@@H](CO)C(=O)N[C@@H](CO)C(=O)N[C@H](C(=O)N[C@@H](CCC(=O)O)C(=O)N[C@@H](CC(N)=O)C(=O)N[C@H](C(=O)N[C@@H](CCC(=O)O)C(=O)NCC(=O)N[C@@H](CC(N)=O)C(=O)NCC(=O)NCC(=O)O)[C@@H](C)CC)C(C)C [AllerT1] | 0 | – | – | – | – | – | – | – | – | – | – | – |
| VATPDGGSILKISNKYHTKGDHEVKAEQVKASKEMGETLLRAVESYLLAHSDAYN [AllerT3] | 0 | – | – | – | – | – | – | – | – | – | – | – |
| AllerT4: SEQ ID NO: 4, aa 2-85 of SEQ ID 9 (Bet v 1) contiguous overlapping peptide (peptide) GVFNYETETTSVIPAARLFKAFILDGDNLFPKVAPQAISSVENIEGNGGPGTIKKISFPEGFPFKYVKDRVDEVDHTNFKYNYS | – | do not show such binding | comparable result | – | 0 | 0 | 0 | 0 | 0 | 1 | – | – |
| AllerT2: SEQ ID NO: 2, aa 48-118 of SEQ ID 9 (Bet v 1) contiguous overlapping peptide (peptide) NGGPGTIKKISFPEGFPFKYVKDRVDEVDHTNFKYNYSVIEGGPIGDTLEKISNEIKIVATPDGGSILKIS | – | – | no competition | – | 0 | 0 | 0 | 0 | 0 | 0 | – | – |

Second part, led by results:

| Positive skin reactions (subjects) [1] | competition with Bet v 1 for IgE binding / residual IgE binding (Bet v 1 specific IgE) | competition for IgE binding to coated r Bet v 1 (Bet v 1 specific IgE; FIG. 1) | IC50 (Bet v 1 specific IgE; depending on the serum of the donor, FIG. 1, read-out: concentration competing with IgE present in the sera (50% inhibition)) | Molecule | Positive skin reactions (subjects) [2, 4] | Reactivity lower than defined threshold (dubious) (subjects) ([2]; dilution 1:1, weal below 4 mm) | Positive skin reactions (subjects) ([2]; dilution 1:10) | Reactivity lower than defined threshold (dubious) (subjects) ([2]; dilution 1:10) | Positive skin reactions (subjects) ([2]; dilution 1:100) | Reactivity lower than defined threshold (dubious) (subjects) ([2]; dilution 1:100) | SPT result ([2]; birch pollen extract 100,000 SQ, recombinant Bet v 1 1 μM) | basophil degranulation (IgE-positive cells expressing CD63) [3] |
| --- | --- | --- | --- | --- | --- | --- | --- | --- | --- | --- | --- | --- |
| – | do not show such binding | comparable result | – | AllerT5: SEQ ID NO: 5, aa 65-160 of SEQ ID 9 (Bet v 1) contiguous overlapping peptide (peptide) FKYVKDRVDEVDHTNFKYNYSVIEGGPIGDTLEKISNEIKIVATPDGGSILKISNKYHTKGDHEVKAEQVKASKEMGETLLRAVESYLLAHSDAYN | 0 | 1 | 0 | 0 | 0 | 0 | – | – |
| – | – | – | 0.0001 to 10 µM | r Bet v 1: Purified recombinant Bet v 1, birch pollen major allergen, purchased from BIOMAY; SEQ ID 9, Swissprot P15494 (protein) MGVFNYETETTSVIPAARLFKAFILDGDNLFPKVAPQAISSVENIEGNGGPGTIKKISFPEGFPFKYVKDRVDEVDHTNFKYNYSVIEGGPIGDTLEKISNEIKIVATPDGGSILKISNKYHTKGDHEVKAEQVKASKEMGETLLRAVESYLLAHSDAYN | 20 | – | 16 | – | 2 | – | positive in all volunteers | concentration dependent manner |
